Reference: patent US5534410, “TATA-binding protein associated factors drug screens” (The Regents of the University of California, dated 1996)

Legend:
[1] = target: T1, GST-NTF-1 fusion protein containing the N-terminal 284 amino acids of NTF-1 (Drosophila, UniProt P13002); assay: GST-NTF-1 fusion binding assay
T1 sequence: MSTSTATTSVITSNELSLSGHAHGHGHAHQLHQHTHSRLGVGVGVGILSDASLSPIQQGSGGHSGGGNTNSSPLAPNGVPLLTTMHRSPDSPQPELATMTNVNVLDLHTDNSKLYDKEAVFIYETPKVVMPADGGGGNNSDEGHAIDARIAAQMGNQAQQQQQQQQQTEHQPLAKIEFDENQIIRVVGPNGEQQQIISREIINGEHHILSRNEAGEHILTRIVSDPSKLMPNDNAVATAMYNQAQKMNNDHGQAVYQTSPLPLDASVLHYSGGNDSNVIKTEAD

[2] = target: Sp1, over-expressed and purified from HeLa cells infected with a vaccinia virus expression vector (Homo sapiens (Human), UniProt P08047); assay: in vitro binding to DNA-bound Sp1 resin
[3] = target: acidic activation domain of GAL4 (residues 768-881) (Saccharomyces cerevisiae (strain ATCC …, UniProt P04386)); assay: yeast two-hybrid
[4] = target: control resin that lacked Sp1 (streptavidin-agarose with biotinylated oligonucleotides) (Streptomyces avidinii, UniProt P22629); assay: 35S-TAF110 on control DNA affinity resin, SDS-PAGE, autoradiography
[5] = target: T2, Drosophila TATA-binding protein (dTBP) (Drosophila, UniProt P20227); assay: coimmunoprecipitation of in vitro expressed proteins
T2 sequence: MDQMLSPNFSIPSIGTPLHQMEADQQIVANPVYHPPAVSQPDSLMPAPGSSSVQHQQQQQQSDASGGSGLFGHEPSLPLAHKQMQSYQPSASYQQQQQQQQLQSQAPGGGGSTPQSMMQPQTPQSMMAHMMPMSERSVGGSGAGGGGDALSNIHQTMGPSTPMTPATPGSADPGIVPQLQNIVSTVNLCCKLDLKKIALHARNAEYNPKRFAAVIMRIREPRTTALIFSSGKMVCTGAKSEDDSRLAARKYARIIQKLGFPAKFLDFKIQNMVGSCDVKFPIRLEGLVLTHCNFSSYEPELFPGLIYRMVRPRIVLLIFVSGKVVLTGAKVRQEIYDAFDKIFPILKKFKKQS

[6] = target: radiolabeled nTBP (Homo sapiens (Human), UniProt P20226); assay: Far Western with radiolabeled probe
[7] = target: human TATA-binding protein (hTBP) (human, UniProt P20226); assay: Far Western of immunoprecipitated hTFIID complex with 35S-labeled hTBP

B1: dTAFII40 (other)
chain: MSAEKSDKAKISAQIKHVPKDAQVIMSILKELNVQEYEPRVVNQLLEFTFRYVTCILDDAKVYANHARKKTIDLDDVRLATEVTLDKSFTGPLERHVLAKVADVRNSMPLPPIKPHCGLRLPPDRYCLTGVNYKLRATNQPKKMTKSAVEGRPLKTVVKPVSSANGPKRPHSVVAKQQVVTIPKPVIKFTTTTTTKTVGSSGGSGGGGGQEVKSESTGAGGDLKMEVDSDAAAVGSIAGASGSGAGSASGGGGGGGSSGVGVAVKREREEEEFEFVTN
B1: no binding [1].

B2: TAF110 deletion mutant 1-137 (other)
chain: MNTSQTAAGNRITFTSQPLPNGTISIAGNPGAVISTAQLPNTTTIKTIQAGIGGQHQGLQQVHHVQQQQQSQQQQQQQQQTQSAGQPLLNSMLPAGVVVGMRQQAPSQQQQKNVPTNPLSRVVINSHMAGVRPQSPS
B2: no binding [2].

B3: dTAFII80 (other)
chain: MSLEVSNINGGNGTQLSHDKRELLCLLKLIKKYQLKSTEELLCQEANVSSVELSEISESDVQQVLGAVLGAGDANRERKHVQSPAQGHKQSAVTEANAAEELAKFIDDDSFDAQHYEQAYKELRTFVEDSLDIYKHELSMVLYPILVQIYFKILASGLREKAKEFIEKYKCDLDGYYIEGLFNLLLLSKPEELLENDLVVAMEQDKFVIRMSRDSHSLFKRHIQDRRQEVVADIVSKYLHFDTYEGMARNKLQCVATAGSHLGEAKRQDNKMRVYYGLLKEVDFQTLTTPAPAPEEEDDDPDAPDRPKKKKPKKDPLLSKKSKSDPNAPSIDRIPLPELKDSDKLLKLKALREASKRLALSKDQLPSAVFYTVLNSHQGVTCAEISDDSTMLACGFGDSSVRIWSLTPAKLRTLKDADSLRELDKESADINVRMLDDRSGEVTRSLMGHTGPVYRCAFAPEMNLLLSCSEDSTIRLWSLLTWSCVVTYRGHVYPVWDVRFAPHGYYFVSCSYDKTARLWATDSNQALRVFVGHLSDVDCVQFHPNSNYVATGSSDRTVRLWDNMTGQSVRLMTGHKGSVSSLAFSACGRYLASGSVDHNIIIWDLSNGSLVTTLLRHTSTVTTITFSRDGTVLAAAGLDNNLTLWDFHKVTEDYISNHITVSHHQDENDEDVYLMRTFPSKNSPFVSLHFTRRNLLMCVGLFKS
B3: no binding [1].

B4: G4-110 (fl): full-length TAF110 fused to the DNA binding domain of GAL4, G4(1-147) (other)
chain: MNTSQTAAGNRITFTSQPLPNGTISIAGNPGAVISTAQLPNTTTIKTIQAGIGGQHQGLQQVHHVQQQQQSQQQQQQQQQTQSAGQPLLNSMLPAGVVVGMRQQAPSQQQQKNVPTNPLSRVVINSHMAGVRPQSPSITLSTLNTGQTPALLVKTDNGFQLLRVGTTTGPPTVTQTITNTSNNSNTTSTTNHPTTTQIRLQTVPAAASMTNTTATSNIIVNSVASSGYANSSQPPHLTQLNAQAPQLPQITQIQTIPAQQSQQQQVNNVSSAGGTATAVSSTTAATTTQQGNTKEKCRKFLANLIELSTREPKPVEKNVRTLIQELVNANVEPEEFCDRLERLLNASPQPCLIGFLKKSLPLLRQALYTKELVIEGIKPPPQHVLGLAGLSQQLPKIQAQIRPIGPSQTTTIGQTQVRMITPNALGTPRPTIGHTTISKQPPNIRLPTAPRLVNTGGIRTQIPSLQVPGQANIVQIRGPQHAQLQRTGSVQIRATTRPPNSVPTANKLTAVKVGQTQIKAITPSLHPPSLAAISGGPPPTPTLSVLSTLNSASTTTLPIPSLPTVHLPPEALRAREQMQNSLNHNSNHFDAKLVEIKAPSLHPPHMERINASLTPIGAKTMARPPPAINKAIGKKKRDAMEMDAKLNTSSGGAASAANSFFQQSSMSSMYGDDDINDVAAMGGVNLAEESQRILGCTENIGTQIRSCKDEVFLNLPSLQARIRAITSEAGLDEPSQDVAVLISHACQERLKNIVEKLAVIAEHRIDVIKLDPRYEPAKDVRGQIKFLEELDKAEQKRHEELEREMLLRAAKSRSRVEDPEQAKMKARAKEMQRAEMEELRQRDANLTALQAIGPRKKLKLDGETVSSGAGSSGGGVLSSSGSAPTTLRPRIKRVNLRDMLFYMEQEREFCRSSMLFKTYLK
B4: no binding [3].

B5: Drosophila TAF110 (dTAFII110), full-length (other)
chain: MNTSQTAAGNRITFTSQPLPNGTISIAGNPGAVISTAQLPNTTTIKTIQAGIGGQHQGLQQVHHVQQQQQSQQQQQQQQQTQSAGQPLLNSMLPAGVVVGMRQQAPSQQQQKNVPTNPLSRVVINSHMAGVRPQSPSITLSTLNTGQTPALLVKTDNGFQLLRVGTTTGPPTVTQTITNTSNNSNTTSTTNHPTTTQIRLQTVPAAASMTNTTATSNIIVNSVASSGYANSSQPPHLTQLNAQAPQLPQITQIQTIPAQQSQQQQVNNVSSAGGTATAVSSTTAATTTQQGNTKEKCRKFLANLIELSTREPKPVEKNVRTLIQELVNANVEPEEFCDRLERLLNASPQPCLIGFLKKSLPLLRQALYTKELVIEGIKPPPQHVLGLAGLSQQLPKIQAQIRPIGPSQTTTIGQTQVRMITPNALGTPRPTIGHTTISKQPPNIRLPTAPRLVNTGGIRTQIPSLQVPGQANIVQIRGPQHAQLQRTGSVQIRATTRPPNSVPTANKLTAVKVGQTQIKAITPSLHPPSLAAISGGPPPTPTLSVLSTLNSASTTTLPIPSLPTVHLPPEALRAREQMQNSLNHNSNHFDAKLVEIKAPSLHPPHMERINASLTPIGAKTMARPPPAINKAIGKKKRDAMEMDAKLNTSSGGAASAANSFFQQSSMSSMYGDDDINDVAAMGGVNLAEESQRILGCTENIGTQIRSCKDEVFLNLPSLQARIRAITSEAGLDEPSQDVAVLISHACQERLKNIVEKLAVIAEHRIDVIKLDPRYEPAKDVRGQIKFLEELDKAEQKRHEELEREMLLRAAKSRSRVEDPEQAKMKARAKEMQRAEMEELRQRDANLTALQAIGPRKKLKLDGETVSSGAGSSGGGVLSSSGSAPTTLRPRIKRVNLRDMLFYMEQEREFCRSSMLFKTYLK
B5: no binding [4]; no binding [5].

B6: hTAFII250 (other)
chain: MGPGCDLLLRTAATITAAAIMSDTDSDEDSAGGGPFSLAGFLFGNINGAGQLEGESVLDDECKKHLAGLGALGLGSLITELTANEELTGTDGALVNDEGWVRSTEDAVDYSDINEVAEDESRRYQQTMGSLQPLCHSDYDEDDYDADCEDIDCKLMPPPPPPPGPMKKDKDQDSITGVSENGEGIILPSIIAPSSLASEKVDFSSSSDSESEMGPQEATQAESEDGKLTLPLAGIMQHDATKLLPSVTELFPEFRPGKVLRFLRLFGPGKNVPSVWRSARRKRKKKHRELIQEEQIQEVECSVESEVSQKSLWNYDYAPPPPPEQCLSDDEITMMAPVESKFSQSTGDIDKVTDTKPRVAEWRYGPARLWYDMLGVPEDGSGFDYGFKLRKTEHEPVIKSRMIEEFRKLEENNGTDLLADENFLMVTQLHWEDDIIWDGEDVKHKGTKPQRASLAGWLPSSMTRNAMAYNVQQGFAATLDDDKPWYSIFPIDNEDLVYGRWEDNIIWDAQAMPRLLEPPVLTLDPNDENLILEIPDEKEEATSNSPSKESKKESSLKKSRILLGKTGVIKEEPQQNMSQPEVKDPWNLSNDEYYYPKQQGLRGTFGGNIIQHSIPAVELRQPFFPTHMGPIKLRQFHRPPLKKYSFGALSQPGPHSVQPLLKHIKKKAKMREQERQASGGGEMFFMRTPQDLTGKDGDLILAEYSEENGPLMMQVGMATKIKNYYKRKPGKDPGAPDCKYGETVYCHTSPFLGSLHPGQLLQAFENNLFRAPIYLHKMPETDFLIIRTRQGYYIRELVDIFVVGQQCPLFEVPGPNSKRANTHIRDFLQVFIYRLFWKSKDRPRRIRMEDIKKAFPSHSESSIRKRLKLCADFKRTGMDSNWWVLKSDFRLPTEEEIRAMVSPEQCCAYYSMIAAEQRLKDAGYGEKSFFAPEEENEEDFQMKIDDEVRTAPWNTTRAFIAAMKGKCLLEVTGVADPTGCGEGFSYVKIPNKPTQQKDDKEPQPVKKTVTGTDADLRRLSLKNAKQLLRKFGVPEEEIKKLSRWEVIDVVRTMSTEQARSGEGPMSKFARGSRFSVAEHQERYKEECQRIFDLQNKVLSSTEVLSTDTDSSSAEDSDFEEMGKNIENMLQNKKTSSQLSREREEQERKELQRMLLAAGSAASGNNHRDDDTASVTSLNSSATGRCLKIYRTFRDEEGKEYVRCETVRKPAVIDAYVRIRTTKDEEFIRKFALFDEQHREEMRKERRRIQEQLRRLKRNQEKEKLKGPPEKKPKKMKERPDLKLKCGACGAIGHMRTNKFCPLYYQTNAPPSNPVAMTEEQEEELEKTVIHNDNEELIKVEGTKIVLGKQLIESADEVRRKSLVLKFPKQQLPPKKKRRVGTTVHCDYLNRPHKSIHRRRTDPMVTLSSILESIINDMRDLPNTYPFHTPVNAKVVKDYYKIITRPMDLQTLRENVRKRLYPSREEFREHLELIVKNSATYNGPKHSLTQISQSMLDLCDEKLKEKEDKLARLEKAINPLLDDDDQVAFSFILDNIVTQKMMAVPDSWPFHHPVNKKFVPDYYKVIVNPMDLETIRKNISKHKYQSRESFLDDVNLILANSVKYNGPESQYTKTAQEIVNVCYQTLTEYDEHLTQLEKDICTAKEAALEEAELESLDPMTPGPYTPQPPDLYDTNTSLSMSRDASVFQDESNMSVLDIPSATPEKQVTQEGEDGDGDLADEEEGTVQQPQASVLYEDLLMSEGEDDEEDAGSDEEGDNPFSAIQLSESGSDSDVGSGGIRPKQPRMLQENTRMDMENEESMMSYEGDGGEASHGLEDSNISYGSYEEPDPKSNTQDTSFSSIGGYEVSEEEEDEEEEEQRSGPSVLSQVHLSEDEEDSEDFHSIAGDSDLDSDE
B6: no binding [6]; binds [7].
